How the values were obtained:
[1] = target: anti-HER2 IgG1 heavy chain (biosimilar Herceptin); assay: non-reducing SDS-PAGE with western blot; crude supernatant of stably transfected CHO DG44 pools at the end of culture, non-reducing conditions; detected with anti-human IgG Fc and anti-human kappa LC antibodies; species assigned by molecular weight
[2] = target: anti-HER2 IgG1 light chain (biosimilar Herceptin); assay: as above

| stoichiometry N [1] | stoichiometry N [2] | Substance |
| --- | --- | --- |
| 2 | – | anti-HER2 IgG1 heavy chain (biosimilar Herceptin) |
| – | 2 | anti-HER2 IgG1 light chain (biosimilar Herceptin) |
